The record followed here is article PMC12242765, “CDK-driven phosphorylation of TRAIP is essential for mitotic replisome disassembly and MiDAS” (Nucleic Acids Research, 2025).

Series [1] deals with the molecule itself. Kind of series: SEC + other: glycerol gradient sedimentation; Superdex 200 Increase 3.2/300 (Stoke's radius 62.77 Å) and 20%-40% glycerol gradient in LFB1/100 (5.105 S), combined by the Siegel-Monty method; apparent molecular size; monomer to dimer.
Series [2] deals with the molecule itself. Kind of series: SEC; Superdex 200 Increase 3.2/300, 20 μl/min; TRAIP-wt and CDK1/Cyclin B-phosphorylated TRAIP-wt loaded one at a time; fractions blotted with TRAIP antibodies. For orientation: In gel filtration, larger molecules generally elute earlier.

B1: His6-SUMO-tagged X. laevis TRAIP-wt (enzyme, UniProt Q6NRV0 1-464, looked up)
chain: MPIRAYCTICSDFFDNARDVAAITCGHTFHQECLLQWFHSAPHRTCPQCRIQVSSRQIINKLFFDIGGEEETVLDAESLKNEVDRIKASLLVKEKEKRECQGLVDSLREMLDVRNVTIQSQQKELGDMEMLCSTLKKQIKFLDKQQSETKAAKDEARKLRNKLKTMESIEVLLQSQRSEVEEMIRDMGSGQAAVEQLAIYCVSLKKEYENLKEVRKSSAEMTEKLRKELFSSNHKAQKAELELTKVREELSASQKELHSADKEIMSLKKKVEFLQKTLTTPTASNEAISRLIFESPAPIGLERPKLRPPMMGNDINLDVTFDIDTPEHNTQKSVVAPFKKMKFDNKEHPLSSPTKNPLQESKGLMSWAGGRTGADEDDDLTLPSFIKNSLLHKKPVGSLLGLRQNTGAVRTGFDGLGGRTKFIQPSNLTEIRPLHQKMKRKKVSRPTACTSSLANQPRLEDFLK
notes: TRAIP ubiquitin ligase, Xenopus laevis, wild type; SUMO-TRAIP is said to be 65 kDa; also called His6-SUMO-TRAIP-wt; His-SUMO-TRAIP; source: E. coli Rosetta (DE3) pLysS, pCA528 vector, purified (Ni-NTA; Mono Q for the gel filtration); not shown: His6, N-terminal, kept; SUMO, N-terminal, kept
As a reminder, the stoichiometry N is a count of units in the complex or per binding partner. Take B1: the “stoichiometry N” value in series [1] was determined as 2.

B2: phosphorylated His6-SUMO-TRAIP-wt (in vitro phosphorylated with CDK1/Cyclin B) (enzyme, X. laevis, UniProt Q6NRV0 1-464, looked up)
chain: MPIRAYCTICSDFFDNARDVAAITCGHTFHQECLLQWFHSAPHRTCPQCRIQVSSRQIINKLFFDIGGEEETVLDAESLKNEVDRIKASLLVKEKEKRECQGLVDSLREMLDVRNVTIQSQQKELGDMEMLCSTLKKQIKFLDKQQSETKAAKDEARKLRNKLKTMESIEVLLQSQRSEVEEMIRDMGSGQAAVEQLAIYCVSLKKEYENLKEVRKSSAEMTEKLRKELFSSNHKAQKAELELTKVREELSASQKELHSADKEIMSLKKKVEFLQKTLTTPTASNEAISRLIFESPAPIGLERPKLRPPMMGNDINLDVTFDIDTPEHNTQKSVVAPFKKMKFDNKEHPLSSPTKNPLQESKGLMSWAGGRTGADEDDDLTLPSFIKNSLLHKKPVGSLLGLRQNTGAVRTGFDGLGGRTKFIQPSNLTEIRPLHQKMKRKKVSRPTACTSSLANQPRLEDFLK
modifications: phosphorylated in vitro by CDK1/Cyclin B; mutation of T280, S295 and S352 to alanine (TRAIP-3A) abolishes this phosphorylation
notes: TRAIP ubiquitin ligase, Xenopus laevis, wild type, as m1; the sites phosphorylated in vitro were not mapped one by one; T325 is discussed as a possible fourth site; also called phosphorylated TRAIP-wt; phosphorylated TRAIP; source: E. coli Rosetta (DE3) pLysS, purified (Ni-NTA, Mono Q), then phosphorylated in vitro with CDK1/Cyclin B; not shown: His6, N-terminal, kept; SUMO, N-terminal, kept
For B2, in series [2], the binding result is reported as “binds”.
